Holding throughout (test): Kinase Profiling Assay
One experiment concerns the target cKit(D816H)(h) (Homo sapiens, UniProt P10721, D816H). The class given is biochemical.
The target in a further experiment is T1, MuSK(h) (Homo sapiens, UniProt O15146).
T1 sequence (O15146 24-869): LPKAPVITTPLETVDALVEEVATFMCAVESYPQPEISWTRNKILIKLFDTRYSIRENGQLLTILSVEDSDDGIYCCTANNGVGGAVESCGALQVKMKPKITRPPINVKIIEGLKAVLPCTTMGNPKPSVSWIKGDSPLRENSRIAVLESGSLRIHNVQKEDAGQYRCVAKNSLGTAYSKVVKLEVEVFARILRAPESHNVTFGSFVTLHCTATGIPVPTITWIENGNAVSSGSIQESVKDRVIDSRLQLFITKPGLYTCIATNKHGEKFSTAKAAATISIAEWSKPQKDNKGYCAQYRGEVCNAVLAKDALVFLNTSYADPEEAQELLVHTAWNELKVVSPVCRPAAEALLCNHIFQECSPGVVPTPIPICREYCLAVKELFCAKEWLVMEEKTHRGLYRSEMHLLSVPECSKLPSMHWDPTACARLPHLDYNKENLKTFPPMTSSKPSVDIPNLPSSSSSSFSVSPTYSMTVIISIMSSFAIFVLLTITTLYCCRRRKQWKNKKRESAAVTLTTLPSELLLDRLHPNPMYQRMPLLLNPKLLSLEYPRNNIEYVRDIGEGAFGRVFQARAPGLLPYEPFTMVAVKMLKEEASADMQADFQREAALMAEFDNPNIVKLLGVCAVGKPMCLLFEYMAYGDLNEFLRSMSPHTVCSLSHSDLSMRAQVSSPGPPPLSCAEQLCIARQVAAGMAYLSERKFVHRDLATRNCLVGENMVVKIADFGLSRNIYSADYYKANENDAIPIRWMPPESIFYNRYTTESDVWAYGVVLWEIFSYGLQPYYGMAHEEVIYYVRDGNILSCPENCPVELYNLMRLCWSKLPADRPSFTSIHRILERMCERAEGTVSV
It is filed as biochemical.

The target in another experiment is T2, TAO3(h) (Homo sapiens, UniProt Q9H2K8).
T2 sequence (Q9H2K8 1-898): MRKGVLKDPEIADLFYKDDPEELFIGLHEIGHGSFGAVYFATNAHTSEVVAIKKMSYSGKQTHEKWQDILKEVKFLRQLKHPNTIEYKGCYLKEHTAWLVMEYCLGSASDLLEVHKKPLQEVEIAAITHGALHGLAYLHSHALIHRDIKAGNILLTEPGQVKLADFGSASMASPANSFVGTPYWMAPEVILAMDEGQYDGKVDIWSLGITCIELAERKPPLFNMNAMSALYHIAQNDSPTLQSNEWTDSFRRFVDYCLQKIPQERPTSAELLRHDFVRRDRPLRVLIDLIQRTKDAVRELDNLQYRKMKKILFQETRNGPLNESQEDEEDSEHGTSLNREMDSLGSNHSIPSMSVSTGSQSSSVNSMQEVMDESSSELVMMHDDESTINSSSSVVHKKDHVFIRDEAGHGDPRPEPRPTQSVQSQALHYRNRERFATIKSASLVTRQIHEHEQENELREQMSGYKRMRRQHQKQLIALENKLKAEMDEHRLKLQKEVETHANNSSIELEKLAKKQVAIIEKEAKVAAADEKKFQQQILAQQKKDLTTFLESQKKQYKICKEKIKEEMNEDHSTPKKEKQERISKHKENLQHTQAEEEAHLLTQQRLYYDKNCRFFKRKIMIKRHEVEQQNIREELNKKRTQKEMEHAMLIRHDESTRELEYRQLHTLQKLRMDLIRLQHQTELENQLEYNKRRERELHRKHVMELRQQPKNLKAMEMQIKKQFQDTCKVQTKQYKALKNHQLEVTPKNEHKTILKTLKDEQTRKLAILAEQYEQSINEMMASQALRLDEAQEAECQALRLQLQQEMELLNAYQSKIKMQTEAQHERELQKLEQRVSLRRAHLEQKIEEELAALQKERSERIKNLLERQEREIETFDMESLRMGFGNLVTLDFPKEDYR
It is filed as biochemical.

A further experiment has as its target CDK5/p25(h) (Homo sapiens, UniProt Q00535). The class given is biochemical. The following applies: 100 μM.
For the next experiment, the target named is DAPK2(h) (Homo sapiens, UniProt Q9UIK4). The class given is biochemical. The conditions noted are these: 100 μM.
Chain of DAPK2(h) (Q9UIK4 whole entry): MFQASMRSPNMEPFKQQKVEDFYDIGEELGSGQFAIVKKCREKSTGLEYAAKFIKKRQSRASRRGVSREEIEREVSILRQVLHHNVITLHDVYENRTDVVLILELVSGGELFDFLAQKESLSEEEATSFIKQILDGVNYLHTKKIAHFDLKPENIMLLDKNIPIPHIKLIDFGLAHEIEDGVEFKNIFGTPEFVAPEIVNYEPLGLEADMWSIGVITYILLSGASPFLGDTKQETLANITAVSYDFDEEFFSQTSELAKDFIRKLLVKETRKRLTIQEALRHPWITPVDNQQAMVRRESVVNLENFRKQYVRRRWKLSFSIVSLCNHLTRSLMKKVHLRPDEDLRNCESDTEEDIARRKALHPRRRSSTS
The target in the next experiment is eEF-2K(h) (Homo sapiens, UniProt O00418). It is filed as biochemical. The following applies: 100 μM.
The next experiment addresses Met(h) (Homo sapiens, UniProt P08581). The class given is biochemical. The conditions noted are these: 100 μM.
Another experiment concerns MLCK(h). It is filed as biochemical, human. The following applies: 100 μM.
In a further experiment the target is PKCη(h) (Homo sapiens, UniProt P24723). The class given is biochemical. The conditions noted are these: 100 μM.
Chain of PKCη(h) (P24723 whole entry): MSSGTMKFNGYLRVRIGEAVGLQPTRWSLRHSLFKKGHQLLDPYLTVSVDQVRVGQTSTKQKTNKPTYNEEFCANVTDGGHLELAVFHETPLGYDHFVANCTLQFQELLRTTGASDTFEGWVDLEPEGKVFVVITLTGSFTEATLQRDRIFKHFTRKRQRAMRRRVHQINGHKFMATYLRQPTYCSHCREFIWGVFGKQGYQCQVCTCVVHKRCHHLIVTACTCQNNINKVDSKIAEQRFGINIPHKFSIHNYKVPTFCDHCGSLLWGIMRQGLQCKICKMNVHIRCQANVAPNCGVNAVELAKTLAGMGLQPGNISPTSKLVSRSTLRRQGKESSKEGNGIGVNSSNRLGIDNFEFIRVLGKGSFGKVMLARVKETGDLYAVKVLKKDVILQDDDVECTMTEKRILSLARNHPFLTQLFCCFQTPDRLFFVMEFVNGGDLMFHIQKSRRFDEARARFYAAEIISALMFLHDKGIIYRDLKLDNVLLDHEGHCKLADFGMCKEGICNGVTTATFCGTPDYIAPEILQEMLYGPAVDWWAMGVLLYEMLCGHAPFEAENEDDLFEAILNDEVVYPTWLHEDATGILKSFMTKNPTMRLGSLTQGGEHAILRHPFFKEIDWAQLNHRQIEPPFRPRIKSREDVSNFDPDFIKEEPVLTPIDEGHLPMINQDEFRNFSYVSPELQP
The next experiment deals with T3, TSSK2(h) (Homo sapiens, UniProt Q96PF2).
T3 sequence (Q96PF2 1-358): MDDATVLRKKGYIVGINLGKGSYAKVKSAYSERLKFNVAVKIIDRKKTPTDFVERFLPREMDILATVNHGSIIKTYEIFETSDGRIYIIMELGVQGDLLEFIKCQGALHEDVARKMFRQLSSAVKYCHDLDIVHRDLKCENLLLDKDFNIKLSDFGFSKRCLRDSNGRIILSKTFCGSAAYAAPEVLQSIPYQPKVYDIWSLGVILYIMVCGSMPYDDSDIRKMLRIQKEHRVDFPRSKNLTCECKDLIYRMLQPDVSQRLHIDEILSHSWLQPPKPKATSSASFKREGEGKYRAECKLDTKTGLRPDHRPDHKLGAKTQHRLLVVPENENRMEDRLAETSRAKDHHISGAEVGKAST
It is filed as biochemical. The conditions noted are these: 100 μM.

The target of the next experiment is Plk1(h) (Homo sapiens, UniProt P53350). It is filed as biochemical. The conditions noted are these: 100 μM.
Chain of Plk1(h) (P53350 whole entry): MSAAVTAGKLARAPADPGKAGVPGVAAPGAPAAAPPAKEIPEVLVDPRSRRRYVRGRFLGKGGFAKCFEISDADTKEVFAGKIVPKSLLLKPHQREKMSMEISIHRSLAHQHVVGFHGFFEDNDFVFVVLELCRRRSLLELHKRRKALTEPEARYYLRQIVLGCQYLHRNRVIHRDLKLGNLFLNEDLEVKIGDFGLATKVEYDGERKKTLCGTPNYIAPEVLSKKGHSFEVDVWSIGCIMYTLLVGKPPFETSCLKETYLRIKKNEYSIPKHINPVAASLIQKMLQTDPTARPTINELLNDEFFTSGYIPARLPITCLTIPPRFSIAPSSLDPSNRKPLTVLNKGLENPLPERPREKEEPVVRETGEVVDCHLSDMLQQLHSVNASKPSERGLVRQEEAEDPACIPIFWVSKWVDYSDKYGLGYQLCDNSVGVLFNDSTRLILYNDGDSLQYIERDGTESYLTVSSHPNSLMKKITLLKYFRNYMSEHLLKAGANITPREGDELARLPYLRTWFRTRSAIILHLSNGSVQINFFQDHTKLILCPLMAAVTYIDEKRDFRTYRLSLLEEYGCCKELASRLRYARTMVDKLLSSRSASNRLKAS

Chain of CDK5/p25(h) (Q00535 whole entry): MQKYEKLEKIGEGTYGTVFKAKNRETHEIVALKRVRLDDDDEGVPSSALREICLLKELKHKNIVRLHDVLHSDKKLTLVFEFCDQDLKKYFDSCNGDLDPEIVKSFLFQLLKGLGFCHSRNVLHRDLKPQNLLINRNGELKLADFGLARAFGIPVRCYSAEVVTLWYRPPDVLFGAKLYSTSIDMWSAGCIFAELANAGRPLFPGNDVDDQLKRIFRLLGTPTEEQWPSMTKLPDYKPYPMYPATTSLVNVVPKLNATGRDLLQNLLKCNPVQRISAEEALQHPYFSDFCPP
Chain of CDK5/p25(h) (Q15078 99-307 partner limits assumed): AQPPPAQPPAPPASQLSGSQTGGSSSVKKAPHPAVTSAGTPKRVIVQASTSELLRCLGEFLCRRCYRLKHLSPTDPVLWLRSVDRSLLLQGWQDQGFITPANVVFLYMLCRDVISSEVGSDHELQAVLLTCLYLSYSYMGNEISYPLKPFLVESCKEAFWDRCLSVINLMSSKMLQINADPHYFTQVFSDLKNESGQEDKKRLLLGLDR
Chain of Met(h) (P08581 25-1408 isoform P08581-2 limits assumed): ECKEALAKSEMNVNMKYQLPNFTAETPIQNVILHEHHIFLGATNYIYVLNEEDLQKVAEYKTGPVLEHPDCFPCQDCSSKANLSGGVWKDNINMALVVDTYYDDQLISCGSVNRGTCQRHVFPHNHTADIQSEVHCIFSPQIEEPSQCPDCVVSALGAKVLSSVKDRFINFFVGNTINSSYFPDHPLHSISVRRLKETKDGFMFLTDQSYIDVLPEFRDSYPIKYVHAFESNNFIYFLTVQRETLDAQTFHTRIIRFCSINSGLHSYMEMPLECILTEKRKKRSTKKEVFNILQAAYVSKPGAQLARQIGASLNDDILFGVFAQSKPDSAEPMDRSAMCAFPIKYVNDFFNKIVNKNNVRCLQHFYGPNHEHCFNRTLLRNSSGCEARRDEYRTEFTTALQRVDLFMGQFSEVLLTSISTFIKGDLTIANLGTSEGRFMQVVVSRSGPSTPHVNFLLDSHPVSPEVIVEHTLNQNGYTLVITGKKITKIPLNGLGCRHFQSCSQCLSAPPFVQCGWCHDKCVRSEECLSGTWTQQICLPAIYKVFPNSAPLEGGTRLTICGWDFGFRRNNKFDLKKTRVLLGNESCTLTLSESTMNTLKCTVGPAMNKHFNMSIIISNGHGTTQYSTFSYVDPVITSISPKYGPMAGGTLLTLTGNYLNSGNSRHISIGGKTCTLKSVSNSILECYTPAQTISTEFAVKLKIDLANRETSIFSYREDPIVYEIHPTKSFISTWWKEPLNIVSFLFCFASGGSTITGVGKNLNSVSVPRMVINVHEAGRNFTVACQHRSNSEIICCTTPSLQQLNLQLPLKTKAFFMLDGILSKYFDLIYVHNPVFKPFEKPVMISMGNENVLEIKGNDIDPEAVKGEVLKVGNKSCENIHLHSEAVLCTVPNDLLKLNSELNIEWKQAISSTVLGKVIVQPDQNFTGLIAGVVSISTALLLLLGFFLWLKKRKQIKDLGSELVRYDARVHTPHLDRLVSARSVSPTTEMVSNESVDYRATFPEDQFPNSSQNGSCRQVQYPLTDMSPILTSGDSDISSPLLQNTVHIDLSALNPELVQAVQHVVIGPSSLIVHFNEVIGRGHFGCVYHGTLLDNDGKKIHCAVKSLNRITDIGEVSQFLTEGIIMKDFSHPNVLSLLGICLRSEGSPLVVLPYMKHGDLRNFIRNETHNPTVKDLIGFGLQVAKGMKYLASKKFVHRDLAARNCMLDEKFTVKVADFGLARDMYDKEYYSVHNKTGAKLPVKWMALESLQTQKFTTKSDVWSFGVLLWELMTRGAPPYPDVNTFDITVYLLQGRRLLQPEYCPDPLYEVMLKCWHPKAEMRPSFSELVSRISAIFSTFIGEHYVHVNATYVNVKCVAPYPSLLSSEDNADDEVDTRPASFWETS

Take H-YARAAARQARAKALARQLGVAA-OH [MMI-0100]: the activity at 100 µM amounted to 79% at cKit(D816H)(h), 85% on MuSK(h) and 45% at TAO3(h).
Regarding “HRRIKAWLKKIKALARQLGVAA (Mammalian) [MMI-0500]”, the “% activity” value was determined as 66% with CDK5/p25(h); 194% in the experiment with cKit(D816H)(h) (100 μM); 3% with DAPK2(h); 43% with eEF-2K(h); 27% in the experiment with Met(h); 0% in the experiment on MLCK(h). Besides, the “% activity” value was determined as 27% with MuSK(h) (100 μM), 45% with PKCη(h), 12% with TAO3(h) (100 μM) and 92% with TSSK2(h).
For “YARAAARQARAKALNRQLGVA (Mammalian) [MMI-0200]”, the “% activity” value with CDK5/p25(h) came to 97%; in the experiment with DAPK2(h), 92%; with Met(h), 71%; in the experiment on MLCK(h), 103%; with PKCη(h), 101%; with Plk1(h) it was 128%. The “% activity” value with TSSK2(h) stood at 91%.
